Assay [1] addresses human MET on EBC-1, NCI-H441 and NCI-H358 cells (human) (UniProt P08581). Kind of assay: saturation radioligand binding (antibody binding capacity) assay with 89Zr-DFO-Comp1 on EBC-1 cells, 4 C, 45 min, gamma counting; x axis is total antibody dosed, not free.
The target is the same in assay [2]. Kind of assay: saturation radioligand binding on NCI-H441 cells, 4 C, single-site fit, n=4.
Assay [3] has the same target. Kind of assay: saturation radioligand binding on NCI-H358 cells, 4 C, single-site fit, n=2.
The target is the same in assay [4]. Kind of assay: saturation radioligand binding on EBC-1 cells, 4 C, single-site fit, n=4.
For assay [5] the target is unchanged. Kind of assay: saturation radioligand binding (antibody binding capacity) assay with 89Zr-DFO-Comp1 on NCI-H441 cells, 4 C, 45 min, gamma counting; x axis is total antibody dosed, not free.

For orientation: EC50 (read off the curve) means the concentration at which the effect is half-maximal.

Sequence of human MET on EBC-1, NCI-H441 and NCI-H358 cells (human) (P08581 25-1390): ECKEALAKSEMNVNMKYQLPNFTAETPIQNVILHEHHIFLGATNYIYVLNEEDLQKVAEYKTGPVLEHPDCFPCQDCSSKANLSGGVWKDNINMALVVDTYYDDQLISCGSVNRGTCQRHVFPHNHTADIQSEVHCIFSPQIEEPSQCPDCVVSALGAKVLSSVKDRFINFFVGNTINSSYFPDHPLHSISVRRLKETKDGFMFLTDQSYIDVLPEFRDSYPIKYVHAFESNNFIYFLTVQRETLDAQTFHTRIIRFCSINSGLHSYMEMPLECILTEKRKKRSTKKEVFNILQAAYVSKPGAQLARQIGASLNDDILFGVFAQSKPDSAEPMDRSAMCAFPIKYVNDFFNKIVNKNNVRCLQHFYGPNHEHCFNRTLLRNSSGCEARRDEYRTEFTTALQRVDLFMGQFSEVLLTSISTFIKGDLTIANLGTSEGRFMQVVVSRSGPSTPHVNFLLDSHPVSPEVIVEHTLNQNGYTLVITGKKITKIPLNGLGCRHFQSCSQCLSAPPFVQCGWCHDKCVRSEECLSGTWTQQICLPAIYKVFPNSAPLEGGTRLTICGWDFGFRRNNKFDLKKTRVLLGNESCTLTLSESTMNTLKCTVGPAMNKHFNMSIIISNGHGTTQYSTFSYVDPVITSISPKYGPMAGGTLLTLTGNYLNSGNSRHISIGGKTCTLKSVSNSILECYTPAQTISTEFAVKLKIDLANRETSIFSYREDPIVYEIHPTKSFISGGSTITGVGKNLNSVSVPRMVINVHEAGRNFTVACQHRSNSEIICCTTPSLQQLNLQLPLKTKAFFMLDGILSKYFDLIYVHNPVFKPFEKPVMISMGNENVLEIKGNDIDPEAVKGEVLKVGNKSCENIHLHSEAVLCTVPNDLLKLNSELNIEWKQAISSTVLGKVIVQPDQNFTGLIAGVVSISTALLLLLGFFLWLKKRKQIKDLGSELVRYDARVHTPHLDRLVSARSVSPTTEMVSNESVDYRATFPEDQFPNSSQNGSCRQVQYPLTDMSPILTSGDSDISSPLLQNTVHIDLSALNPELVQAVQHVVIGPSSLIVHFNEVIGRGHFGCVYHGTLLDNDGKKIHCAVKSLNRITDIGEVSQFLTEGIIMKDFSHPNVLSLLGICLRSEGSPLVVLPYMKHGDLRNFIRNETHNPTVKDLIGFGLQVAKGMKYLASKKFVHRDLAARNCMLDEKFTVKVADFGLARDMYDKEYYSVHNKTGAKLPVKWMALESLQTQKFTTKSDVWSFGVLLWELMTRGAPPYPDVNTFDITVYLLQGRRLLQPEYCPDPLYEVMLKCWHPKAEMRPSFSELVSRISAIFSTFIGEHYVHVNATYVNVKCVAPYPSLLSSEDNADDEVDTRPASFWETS

B1: 89Zr-DFO-anti-Met single-arm comparator antibody (Comp1; Onartuzumab) (antibody, INN chains, looked up, V domains shown)
VH: EVQLVESGGGLVQPGGSLRLSCAASGYTFTSYWLHWVRQAPGKGLEWVGMIDPSNSDTRFNPNFKDRFTISADTSKNTAYLQMNSLRAEDTAVYYCATYRSYVTPLDYWGQGTLVTVSS
VL: DIQMTQSPSSLSASVGDRVTITCKSSQSLLYTSSQKNYLAWYQQKPGKAPKLLIYWASTRESGVPSRFSGSGSGTDFTLTISSLQPEDFATYYCQQYYAYPWTFGQGTKVEIK
modifications: one-armed monovalent 89Zr-DFO label
Take B1: the EC50 (read off the curve) in assay [1] is 4 nM; in assay [5] it was 3 nM. Further, the ABC (antibody binding capacity) in assay [2] was 62000 per cell; in assay [3] it was 21000 per cell; in assay [4] it was 250000 per cell.

The record behind these values is patent publication US20210077638A1.
